The values below come from patent US20230331820A1 (GlaxoSmithKline, published 2023).

The target in test [1] is T1, gEgI WT: HSV2 gEgI heterodimer comprising gE and gI wildtype ectodomains (HSV2, UniProt P89475 21-416; P06764 21-256). The test is described as follows: SPR single-cycle kinetics, mAb captured on RAM, gEgI as analyte, 1:1 model.
Test [2] has as its target T2, gEgI mutant (P317R): HSV2 gEgI mutant heterodimer comprising gE and gI ectodomains with mutation P317R in gE (HSV2, UniProt P89475 21-416; P06764 21-256). Put plainly: SPR single-cycle kinetics, mAb captured on RAM; gEgI mutant batch 1.
Test [3] concerns the target T1, gEgI WT: HSV2 gEgI heterodimer …. The test is described as follows: Biacore SPR, gEgI HEK BMP1063 at 10 µg/ml for 180 s over the mAb.
The target of test [4] is T2, gEgI mutant (P317R): HSV2 gEgI mutant …. Put plainly: SPR single-cycle kinetics, mAb captured on RAM; gEgI mutant batch 2.
The target in test [5] is gEgI mutant (338): HSV2 gEgI mutant heterodimer comprising gE and gI ectodomains with insertion of a (HSV2, UniProt P89475 21-416; P06764 21-256). Put plainly: ELISA, supernatant.
Test [6] deals with gI WT: HSV2 gI wildtype ectodomain (HSV2, UniProt P06764 21-256). Put plainly: ELISA, supernatant.
Test [7] has as its target T1, gEgI WT: HSV2 gEgI heterodimer …. Put plainly: Biacore SPR, gEgI CHO BMP1181 at 10 µg/ml for 180 s over the mAb.

B1: mAb clone 12, 13 (antibody, V domains shown)
VH: QVQLKESGPGLVAPSQSLSITCTVSGFSLTSYGVHWVRQPPGKGLEWLGVIWAGGSTNYNSALMSRLSISKDNSKSQVFLKMNSLQTDDTAMYFCARGGITSLHNYVMDYWGQGTSVTVSS
VL: DIVLTQSPASLAVSLGQRATISCRASESVEYYGTSLMQWYQQKPGQPPKLLIYAASNVESGVPARFSGSGSGTHFSLNIHPVEEDDIAMYFCQQSRKVPSTFGGGTKLEIK
notes: also called mAb 12; mAb12
For B1, the Kd in test [1] stood at 6.89 nM; in test [2], 7.68 nM; in test [4], 11.5 nM. The koff in test [1] is 0.00197 s⁻¹; in test [2] it was 0.00325 s⁻¹; in test [4], 0.00324 s⁻¹. Also, the kon in test [1] turned out to be 285000 M⁻¹ s⁻¹; in test [2], 422000 M⁻¹ s⁻¹; in test [4], 280000 M⁻¹ s⁻¹. The “RU Ag/250 RU mAbs” value in test [3] is 108 RU Ag/250 RU mAbs; in test [7] it was 112 RU Ag/250 RU mAbs. For the same molecule, the results for the binding result in test [5] and in test [6] were “binds” and “no binding”, respectively.
